No end group written: not given here.

This assay concerns the target T1, HFGAN72 receptor (human, UniProt O43613 1-425).
T1 sequence (looked up): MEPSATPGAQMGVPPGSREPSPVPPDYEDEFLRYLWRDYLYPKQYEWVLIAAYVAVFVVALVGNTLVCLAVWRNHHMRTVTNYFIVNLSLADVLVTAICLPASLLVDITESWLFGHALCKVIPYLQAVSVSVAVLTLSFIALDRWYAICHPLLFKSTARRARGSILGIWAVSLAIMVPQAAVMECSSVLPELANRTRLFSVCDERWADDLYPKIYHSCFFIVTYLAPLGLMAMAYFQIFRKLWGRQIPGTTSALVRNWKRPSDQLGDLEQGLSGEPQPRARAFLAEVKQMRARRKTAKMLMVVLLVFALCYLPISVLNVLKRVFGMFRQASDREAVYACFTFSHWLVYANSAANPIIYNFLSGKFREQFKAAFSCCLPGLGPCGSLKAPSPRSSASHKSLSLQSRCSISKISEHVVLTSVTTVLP
In words: cell-based or functional assay.

B1: Lig 72A (HFGAN72 receptor ligand) (peptide)
peptide: QPLPDCCRQKTCSCRLYELLHGAGNHAAGILTL
modifications: cysteine pairing not given here; also: N-terminus blocked
Consider B1, for which the “Intracellular calcium levels in Fura-loaded 293 cells transfected with the receptor; EC50” value was about 0.05 µg/mL.

(Values after patent publication US20020082202A1 (GlaxoSmithKline, published 2002).)
